Test results reported in US7439017B2, “Assays for measuring nucleic acid binding proteins and enzyme activities” (BioVeris Corporation, priority 1998, dated 2008).

System: RuBpy-labeled Sheep anti-mouse IgG coated beads
Assay: ECL-based assay for the measurement of protease activity
Assay type: biochemical
Conditions: in words, 30 minutes at 37° C., solution phase, FIG. 9
Protocol: This assay system consists of a ruthenylated (RuBpy-labeled) substrate immobilized on paramagnetic beads and the enzyme of interest. The RuBpy label is released by the action of the enzyme. The ECL of the free label is measured using the ORIGEN Analyzer (IGEN International).
Dynabead® M280 Sheep anti-mouse IgG coated beads (IGEN International, Inc.) were RuBpy-labeled at a 200:1 challenge ratio of RuBpy to IgG to introduce RuBpy groups on the immobilized IgG molecules. The labeling was carried out using a derivative of RuBpy linked to an NHS ester (TAG-NHS, IGEN International) according to established procedures. The beads were then washed three times, thirty minutes each, at 4° C. with equal volumes of PBS, pH 7.8, and once overnight at 4° C. Replicate test samples were prepared with 100 μl of solutions containing known amounts of Proteinase K (Sigma) in phosphate buffered saline, pH 7.8 and 25 μl of 1.2 mg/ml TAG labeled Sheep anti-mouse beads. […] The reaction was quenched by the addition of 1 mL of a solution containing tripropylamine (ORIGEN Assay Buffer, IGEN International, Inc.) and the protease activity was quantitated on the ORIGEN 1.5 Analyzer with the solution phase default settings (i.e., the beads are kept in suspension so as to preferentially measure ECL at the electrode from RuBpy groups in solution) except for high vortex speed.

B1: Proteinase K: Proteinase K (Sigma), protease measured in the ECL assay (protein, UniProt P06873 106-384, looked up)
Proteinase K: AAQTNAPWGLARISSTSPGTSTYYYDESAGQGSCVYVIDTGIEASHPEFEGRAQMVKTYYYSSRDGNGHGTHCAGTVGSRTYGVAKKTQLFGVKVLDDNGSGQYSTIIAGMDFVASDKNNRNCPKGVVASLSLGGGYSSSVNSAAARLQSSGVMVAVAAGNNNADARNYSPASEPSVCTVGASDRYDRRSSFSNYGSVLDIFGPGTSILSTWIGGSTRSISGTSMATPHVAGLAAYLMTLGKTTAASACRYIADTANKGDLSNIPFGTVNLLAYNNYQA
In the case of B1, the “ECL signal as a function of the concentration of enzyme” value is reported as “directly related to the concentration of enzyme”.
